# IntAct's records for PubMed 19850040
# B1: Post-transcriptional regulator MTA (Human herpesvirus 8), Q2HR75 (parent)
# chain: MVQAMIDMDIMKGILEDSVSSSEFDESRDDETDAPTLEDEQLSEPAEPPADERIRGTQSAQGIPPPLGRIPKKSQGRSQLRSEIQFCSPLSRPRSPSPVNRYGKKIKFGTAGQNTRPPPEKRPRRRPRDRLQYGRTTRGGQCRAAPKRATRRPQVNCQRQDDDVRQGVSDAVKKLRLPASMIIDGESPRFDDSIIPRHHGACFNVFIPAPPSHVPEVFTDRDITALIRAGGKDDELINKKISAKKIDHLHRQMLSFVTSRHNQAYWVSCRRETAAAGGLQTLGAFVEEQMTWAQTVVRHGGWFDEKDIDIILDTAIFVCNAFVTRFRLLHLSCVFDKQSELALIKQVAYLVAMGNRLVEACNLLGEVKLNFRGGLLLAFVLTIPGMQSRRSISARGQELFRTLLEYYRPGDVMGLLNVIVMEHHSLCRNSECAAATRAAMGSAKFNKGLFFYPLS
# Variants of: B1
# Conditions: with thoc4_human ALYREF
row,Variant,effect of a mutation on the interaction
1,MVQAMIDMDIMKGILEDSVSSSEFDESRDDETDAPTLEDEQLSEPAEPPADERIRGTQSAQGIPPPLGRIPKKSQGRSQLRSEIQFCSPLSRPRSPSPVNRYGKNIKFGTAGQNTRPPPEKRPRRRPRDRLQYGRTTRGGQCRAAPKRATRRPQVNCQRQDDDVRQGVSDAVKKLRLPASMIIDGESPRFDDSIIPRHHGACFNVFIPAPPSHVPEVFTDRDITALIRAGGKDDELINKKISAKKIDHLHRQMLSFVTSRHNQAYWVSCRRETAAAGGLQTLGAFVEEQMTWAQTVVRHGGWFDEKDIDIILDTAIFVCNAFVTRFRLLHLSCVFDKQSELALIKQVAYLVAMGNRLVEACNLLGEVKLNFRGGLLLAFVLTIPGMQSRRSISARGQELFRTLLEYYRPGDVMGLLNVIVMEHHSLCRNSECAAATRAAMGSAKFNKGLFFYPLS [K105N],disrupting interaction
2,MVQAMIDMDIMKGILEDSVSSSEFDESRDDETDAPTLEDEQLSEPAEPPADERIRGTQSAQGIPPPLGRIPKKSQGRSQLRSEIQFCSPLSRPRSPSPVNRYGKKIEFGTAGQNTRPPPEKRPRRRPRDRLQYGRTTRGGQCRAAPKRATRRPQVNCQRQDDDVRQGVSDAVKKLRLPASMIIDGESPRFDDSIIPRHHGACFNVFIPAPPSHVPEVFTDRDITALIRAGGKDDELINKKISAKKIDHLHRQMLSFVTSRHNQAYWVSCRRETAAAGGLQTLGAFVEEQMTWAQTVVRHGGWFDEKDIDIILDTAIFVCNAFVTRFRLLHLSCVFDKQSELALIKQVAYLVAMGNRLVEACNLLGEVKLNFRGGLLLAFVLTIPGMQSRRSISARGQELFRTLLEYYRPGDVMGLLNVIVMEHHSLCRNSECAAATRAAMGSAKFNKGLFFYPLS [K107E],disrupting interaction
3,MVQAMIDMDIMKGILEDSVSSSEFDESRDDETDAPTLEDEQLSEPAEPPADERIRGTQSAQGIPPPLGRIPKKSQGRSQLRSEIQFCSPLSRPRSPSPVNSYGKKIKFGTAGQNTRPPPEKRPRRRPRDRLQYGRTTRGGQCRAAPKRATRRPQVNCQRQDDDVRQGVSDAVKKLRLPASMIIDGESPRFDDSIIPRHHGACFNVFIPAPPSHVPEVFTDRDITALIRAGGKDDELINKKISAKKIDHLHRQMLSFVTSRHNQAYWVSCRRETAAAGGLQTLGAFVEEQMTWAQTVVRHGGWFDEKDIDIILDTAIFVCNAFVTRFRLLHLSCVFDKQSELALIKQVAYLVAMGNRLVEACNLLGEVKLNFRGGLLLAFVLTIPGMQSRRSISARGQELFRTLLEYYRPGDVMGLLNVIVMEHHSLCRNSECAAATRAAMGSAKFNKGLFFYPLS [R101S],disrupting interaction
